# Results taken from patent US20240270857A1 (CHIA TAI TIANQING PHARMACEUTICAL GROUP, published 2024).
# Like-named read-outs stand apart in the source and are kept apart here.
# Legend:
# [1] = biological target: T1, IL-36R naturally expressed on OVCAR8 cells and on normal human epidermal keratinocytes (NHK cells) (human, UniProt Q9HB29 20-575); test: cell-based or functional assay
# T1 sequence (looked up): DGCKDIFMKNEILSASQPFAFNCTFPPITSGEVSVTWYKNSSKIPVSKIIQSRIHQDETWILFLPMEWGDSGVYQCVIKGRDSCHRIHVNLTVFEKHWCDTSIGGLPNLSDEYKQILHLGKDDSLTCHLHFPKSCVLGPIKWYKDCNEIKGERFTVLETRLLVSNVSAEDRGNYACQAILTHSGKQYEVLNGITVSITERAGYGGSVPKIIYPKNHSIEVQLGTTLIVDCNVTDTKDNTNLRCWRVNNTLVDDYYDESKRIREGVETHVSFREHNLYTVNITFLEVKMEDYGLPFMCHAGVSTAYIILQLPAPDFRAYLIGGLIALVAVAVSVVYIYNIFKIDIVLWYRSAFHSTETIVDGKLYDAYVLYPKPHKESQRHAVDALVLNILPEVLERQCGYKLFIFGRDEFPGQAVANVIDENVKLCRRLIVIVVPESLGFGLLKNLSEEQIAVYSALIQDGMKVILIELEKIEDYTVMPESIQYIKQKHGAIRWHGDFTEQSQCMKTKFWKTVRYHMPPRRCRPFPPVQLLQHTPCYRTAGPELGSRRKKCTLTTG
# [2] = biological target: T1, IL-36R naturally expressed on OVCAR8 …; test: cell-based or functional assay; remark: listed apart in the source
# [3] = biological target: T2, human IL-36R overexpressed on 293T-hIL36R-NFκB cells (human, UniProt Q9HB29 20-575); test: FACS on 293T-hIL36R-NFκB cells, ratio of MFI to background MFI
# T2 construct: Entry includes the signal peptide; also called IL1RL2; IL-1Rrp2
# T2 sequence: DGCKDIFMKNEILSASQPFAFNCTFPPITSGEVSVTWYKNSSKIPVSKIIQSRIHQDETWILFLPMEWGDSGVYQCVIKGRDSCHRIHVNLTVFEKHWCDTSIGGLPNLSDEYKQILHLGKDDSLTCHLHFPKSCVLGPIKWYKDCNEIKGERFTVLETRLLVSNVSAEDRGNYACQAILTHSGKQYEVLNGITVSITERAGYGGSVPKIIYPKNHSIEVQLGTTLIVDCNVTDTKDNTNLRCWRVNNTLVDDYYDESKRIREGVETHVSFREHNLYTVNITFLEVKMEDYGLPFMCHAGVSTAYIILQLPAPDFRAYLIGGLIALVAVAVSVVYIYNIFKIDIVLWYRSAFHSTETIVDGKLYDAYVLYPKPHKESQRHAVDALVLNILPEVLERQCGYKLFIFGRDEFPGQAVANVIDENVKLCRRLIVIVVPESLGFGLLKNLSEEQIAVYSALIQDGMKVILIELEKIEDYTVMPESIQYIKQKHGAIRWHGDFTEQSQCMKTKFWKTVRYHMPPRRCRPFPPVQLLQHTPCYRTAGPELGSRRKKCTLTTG
# Procedure: (§1) After the cells was washed with PBS, the cells were resuspended with 100 μL of PBS and then the fluorescence signal was detected using a flow cytometer (BD, Accuri C6). […] The ratio was the ratio of mean fluorescence intensity (MFI) of the experimental group/the background MFI, and the resulting data were analyzed using GraphPad Prism.
# (§2) Affinity, binding and blocking assays for humanized antibodies hz72C1-1.1, hz72C1-1.2, hz72C1-1.3, hz72C1-2.1, hz72C1-2.2 and hz72C1-2.3 as well as hz84C4-1.1, hz84C4-1.2, hz84C4-1.3, hz84C4-1.4, hz84C4-1.5, hz84C4-2.1, hz84C4-2.2, hz84C4-2.3, hz84C4-2.4 and hz84C4-2.5 were performed according to the methods of Example 4, Example 5. Example 6, Example 7 and Example 8.
# [4] = biological target: T3, cynomolgus IL-36R overexpressed on 293T-CynoIL36R-NFκB cells (cynomolgus monkey); test: FACS on 293T-CynoIL36R-NFκB cells, ratio of MFI to background MFI
# T3 construct: Entry includes the signal peptide; also called monkey IL-36R
# T3 chain: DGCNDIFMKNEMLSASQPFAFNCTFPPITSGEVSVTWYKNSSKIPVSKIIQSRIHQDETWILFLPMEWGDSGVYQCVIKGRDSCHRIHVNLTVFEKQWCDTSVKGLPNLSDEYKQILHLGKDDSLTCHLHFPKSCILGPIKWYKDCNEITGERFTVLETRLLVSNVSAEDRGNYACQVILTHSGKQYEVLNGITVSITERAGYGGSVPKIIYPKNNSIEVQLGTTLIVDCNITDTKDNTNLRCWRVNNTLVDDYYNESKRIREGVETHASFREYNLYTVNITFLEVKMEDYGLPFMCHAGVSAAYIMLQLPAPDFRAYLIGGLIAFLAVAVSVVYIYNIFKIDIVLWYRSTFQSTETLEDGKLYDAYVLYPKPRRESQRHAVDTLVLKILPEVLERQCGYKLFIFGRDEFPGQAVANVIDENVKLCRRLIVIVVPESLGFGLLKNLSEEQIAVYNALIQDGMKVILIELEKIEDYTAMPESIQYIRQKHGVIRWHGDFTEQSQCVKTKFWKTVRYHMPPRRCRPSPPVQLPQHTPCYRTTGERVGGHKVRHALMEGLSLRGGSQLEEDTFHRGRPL
# Procedure: as §1, §2
Binder,IC50 (M); hIL36α; IL-8 production [1],IC50 (M); hIL36αβγ; IL-8 production [1],IC50 (M); hIL36β; IL-8 production [1],IC50 (M); hIL36γ; IL-8 production [1],Maximum inhibition rate %; hIL36α; IL-8 production [1],Maximum inhibition rate %; hIL36αβγ; IL-8 production [1],Maximum inhibition rate %; hIL36β; IL-8 production [1],Maximum inhibition rate %; hIL36γ; IL-8 production [1],IC50 (M); hIL36α; IL-8 production [2],IC50 (M); hIL36αβγ; IL-8 production [2],IC50 (M); hIL36β; IL-8 production [2],IC50 (M); hIL36γ; IL-8 production [2],Maximum inhibition rate %; hIL36α; IL-8 production [2],Maximum inhibition rate %; hIL36αβγ; IL-8 production [2],Maximum inhibition rate %; hIL36β; IL-8 production [2],Maximum inhibition rate %; hIL36γ; IL-8 production [2],EC50 [3],EC50 [4],IC50; hIL36γ; IL-8 production [1]
"hz84C4-2.1 (antibody, human IgG4 S228P, kappa, V domains shown, Humanized, human IgG4 / kappa) VH: QVQLVQSGAEVKKPGASVKVSCKASGYFFTSYWMNWVRQAPGQGLEWMGMIHPYDSETRYAQKFQGRVTMTVDKSTSTVYMELSSLRSEDTAVYYCASSTTAFAYWGQGTLVTVSS VL: DIQMTQSPSSLSASVGDRVTITCRASQDIGNALNWLQQKPGKAPKRLIYATSSLDPGVPSRFSGSRSGTDYTLTISSLQPEDFATYYCLQYASSPYTFGQGTKVEIKR",1.09e-11 M,3.66e-12 M,5.7e-12 M,6.45e-12 M,99.9%,99.9%,99.3%,99.6%,5.23e-11 M,4.82e-11 M,3.18e-11 M,1.81e-11 M,99.5%,107%,96.8%,97.5%,~5.22 nM,5.75 nM,–
"hz84C4-2.4 (antibody, human IgG4 S228P, kappa, V domains shown, Humanized, human IgG4 / kappa) VH: QVQLVQSGAEVKKPGASVKVSCKASGYYFTSYWMNWVRQAPGQGLEWMGMIHPYDSETRLAQKFKGRVTMTVDKSTSTVYMELSSLRSEDTAVYYCASSTTAFAYWGQGTLVTVSS VL: DIQMTQSPSSLSASVGDRVTITCRASQDIGNALNWLQQKPGKAPKRLIYATSSLDPGVPSRFSGSRSGTDYTLTISSLQPEDFATYYCLQYASSPYTFGQGTKVEIKR",7.52e-12 M,2.58e-12 M,7.24e-12 M,5.15e-12 M,99.5%,98.8%,99.1%,99.3%,4.68e-11 M,1.57e-10 M,6.52e-11 M,1.12e-11 M,95%,95.6%,92.7%,101%,~5.26 nM,48.2 nM,–
"hz84C4-2.3 (antibody, human IgG4 S228P, kappa, V domains shown, Humanized, human IgG4 / kappa) VH: QVQLVQSGAEVKKPGASVKVSCKASGYFFTSYWMNWVRQAPGQGLEWMGMIYPYDSETRYAQKFQGRVTMTVDKSTSTVYMELSSLRSEDTAVYYCASSTTAFAYWGQGTLVTVSS VL: DIQMTQSPSSLSASVGDRVTITCRASQDIGNALNWLQQKPGKAPKRLIYATSSLDPGVPSRFSGSRSGTDYTLTISSLQPEDFATYYCLQYASSPYTFGQGTKVEIKR",~6.47e-12 M,~4.34e-12 M,3.42e-12 M,–,28.4%,40.6%,18.6%,41.5%,~9.24e-13 M,8.23e-11 M,~2.73e-11 M,8.76e-10 M,44.5%,33.1%,23.4%,57%,14.5 nM,176 nM,0.0062 nM
"hz84C4-2.2 (antibody, human IgG4 S228P, kappa, V domains shown, Humanized, human IgG4 / kappa) VH: QVQLVQSGAEVKKPGASVKVSCKASGYFFTSYWMNWVRQAPGQGLEWMGYIHPYDSETRYAQKFQGRVTMTVDKSTSTVYMELSSLRSEDTAVYYCASSTTAFAYWGQGTLVTVSS VL: DIQMTQSPSSLSASVGDRVTITCRASQDIGNALNWLQQKPGKAPKRLIYATSSLDPGVPSRFSGSRSGTDYTLTISSLQPEDFATYYCLQYASSPYTFGQGTKVEIKR",1.19e-11 M,1.31e-11 M,8.59e-12 M,8.61e-12 M,99.2%,99.2%,98.5%,98.7%,8.45e-11 M,6.63e-11 M,4.64e-11 M,6.21e-11 M,95.1%,100%,95.8%,15%,~5.23 nM,17.1 nM,–
"hz84C4-2.5 (antibody, human IgG4 S228P, kappa, V domains shown, Humanized, human IgG4 / kappa) VH: QVQLVQSGAEVKKPGASVKVSCKVSGYFFTSYWMNWVNQAPGQGLEWMGMIHPYDSETRLAQKFKGRVTMTVDKSTSTVYMELSSLRSEDTAVYYCASSTTAFAYWGQGTLVTVSS VL: DIQMTQSPSSLSASVGDRVTITCRASQDIGNALNWLQQKPGKAPKRLIYATSSLDPGVPSRFSGSRSGTDYTLTISSLQPEDFATYYCLQYASSPYTFGQGTKVEIKR",6.45e-12 M,4.01e-12 M,7.06e-12 M,6.62e-12 M,100%,99.2%,99.4%,99.7%,4.81e-11 M,6.61e-11 M,1.24e-11 M,8.4e-12 M,99.7%,98.5%,102%,103%,~5.04 nM,11.9 nM,–
